Experimental findings from US20090221680 are described below.

For this data set, the target named is thrombin (alpha-thrombin) (Homo sapiens) (UniProt P00734+P00734). The experiment in a line: filter.

As a reminder, the Kd is the concentration at which binding is half-saturated. For the sequence “ACTGCCTAGGTTGGGTAGGGTGGTGGCAGT [ARC2683]”, under “deoxyinosine at 23 [23]”, the Kd turned out to be 0.151 nM. Consider “ACTGCCTAGGTTGGGTAGGGTGGTGGCAGT [ARC2678]”, for which the Kd (deoxyinosine at 15 [15]) amounted to 1.43 nM. The sequence “ACTGCCTAGGTTGGGTAGGGTGGTGGCAGT [ARC2697]” registered a Kd (2'-OMe inosine at 23, rest DNA [23]) of 1.56 nM.

Take “ACTGCCTAGGTTGGGTAGGGTGGTGGCAGT [ARC2698]”: the Kd (2'-OMe inosine at 25, rest DNA [25 = 2'-OMe inosine (written as parent base G), rest DNA]) is 0.165 nM. Take “ACTGCCTAGGTTGGGTAGGGTGGTGGCAGT [ARC2699]”: the equilibrium dissociation constant (Kd) (2'-OMe inosine at 26, rest DNA [26 = 2'-OMe inosine (written as parent base G), rest DNA]) was found to be 0.128 nM.

“ACTGCCTAGGTTGGGTAGGGTGGTGGCAGT [ARC2682]” returned a Kd (deoxyinosine at 22 [22]) of 1.3 nM. For the setting “deoxyinosine at 13 [13]”, “ACTGCCTAGGTTGGGTAGGGTGGTGGCAGT [ARC2676]” came in with a Kd of 0.698 nM. “ACTGCCTAGGTTGGGTAGGGTGGTGGCAGT [ARC2680]”: for the setting “deoxyinosine at 19 [19]”, the Kd is 0.24 nM.

Consider “ACTGCCTAGGTTGGGTAGGGTGGTGGCAGT [ARC2673]”, for which the Kd (deoxyinosine at 4 [deoxyinosine at 4 (parent base G)]) turned out to be 0.207 nM.

“ACTGCCTAGGTTGGGTAGGGTGGTGGCAGT [ARC2687]” returned a dissociation constant (Kd) (2'-OMe inosine at 4, rest DNA [4]) of 0.22 nM. On to “ACTGCCTAGGTTGGGTAGGGTGGTGGCAGT [ARC2700]”, for which the Kd (2'-OMe inosine at 29, rest DNA [29 = 2'-OMe inosine (written as parent base G), rest DNA]) came to 0.046 nM. “ACTGCCTAGGTTGGGTAGGGTGGTGGCAGT [ARC2692]” returned a Kd (2'-OMe inosine at 15, rest DNA [15]) of 1.84 nM. In turn, “ACTGCCTAGGTTGGGTAGGGTGGTGGCAGT [ARC2685]” returned a Kd (deoxyinosine at 26 [26]) of 0.226 nM. Where the note is “deoxyinosine at 9 [9]”, “ACTGCCTAGGTTGGGTAGGGTGGTGGCAGT [ARC2674]” registered a Kd of 0.452 nM.

Turning to “ACTGCCTAGGTTGGGTAGGGTGGTGGCAGT [ARC2681]”, the Kd (deoxyinosine at 20 [20]) came to 0.334 nM.

Consider “ACTGCCTAGGTTGGGTAGGGTGGTGGCAGT [ARC2695]”, for which, where the note is “2'-OMe inosine at 20, rest DNA [20]”, the Kd was determined as 2.08 nM. Where the note is “deoxyinosine at 25 [25]”, “ACTGCCTAGGTTGGGTAGGGTGGTGGCAGT [ARC2684]” came in with a Kd of 0.188 nM. For the setting “deoxyinosine at 14 [14]”, “ACTGCCTAGGTTGGGTAGGGTGGTGGCAGT [ARC2677]” gave a Kd of 0.199 nM.

In turn, “ACTGCCTAGGTTGGGTAGGGTGGTGGCAGT [ARC2679]” displayed a Kd (deoxyinosine at 18 [18]) of 0.355 nM. Turning to “ACTGCCTAGGTTGGGTAGGGTGGTGGCAGT [ARC2675]”, under “deoxyinosine at 10 [10]”, the Kd turned out to be 2.03 nM. On to “ACTGCCTAGGTTGGGTAGGGTGGTGGCAGT [ARC2691]”, for which the Kd (2'-OMe inosine at 14, rest DNA [14]) came to 2.28 nM. For the sequence “ACTGCCTAGGTTGGGTAGGGTGGTGGCAGT [ARC2686]”, where the note is “deoxyinosine at 29 [29]”, the Kd is 0.189 nM.
